Measurements as given in the Human Domainome abundance scans (Beltran et al. 2025).
± gives the uncertainty stated by the source.

B1: Far upstream element-binding protein 1, residues 98 to 169; numbered along this chain, Q96AE4 (parent)
chain: RSVMTEEYKVPDGMVGFIIGRGGEQISRIQQESGCKIQIAPDSGGLPERSCMLTGTPESVQSAKRLLDQIVE

Variants of: B1
Assay: abundance fitness (aPCA) (normalised: wild type 0, dead -1); higher = more abundant; growth selection in yeast, the domain comes from the species named
Details: Homo sapiens

Variant	abundance fitness
R65G	-0.027 ± 0.023
R65N	-0.008 ± 0.039
R65E	-0.015 ± 0.031
R65L	-0.024 ± 0.026
V10F	-0.091 ± 0.038
V10Y	-0.198 ± 0.039
V10N	-0.48 ± 0.055
V10H	-0.502 ± 0.046
V10C	-0.078 ± 0.034
K36R	-0.034 ± 0.024
K36W	-0.129 ± 0.029
K36A	-0.018 ± 0.024
K36T	-0.062 ± 0.031
K36S	-0.041 ± 0.028
S2K	-0.006 ± 0.039
S2Y	-0.087 ± 0.049
S2N	-0.143 ± 0.057
S2A	-0.033 ± 0.027
S2W	-0.133 ± 0.035
S2P	-0.064 ± 0.031
S2L	-0.052 ± 0.027
L67W	-0.94 ± 0.038
L67F	-0.121 ± 0.038
L67S	-0.648 ± 0.033

Variant	abundance fitness
L67R	-0.777 ± 0.029
T54H	-0.056 ± 0.049
T54V	-0.05 ± 0.028
T54S	-0.027 ± 0.029
I19D	-0.094 ± 0.038
I19T	-0.018 ± 0.03
I19K	-0.021 ± 0.037
I19Q	-0.03 ± 0.032
I19C	-0.001 ± 0.042
I26D	-0.529 ± 0.058
I26T	-0.092 ± 0.039
I26V	-0.104 ± 0.029
R28M	-0.083 ± 0.036
R28C	-0.109 ± 0.056
R28L	-0.071 ± 0.03
R28N	-0.102 ± 0.048
T5S	-0.01 ± 0.026
T5P	-0.301 ± 0.032
T5H	-0.055 ± 0.037
T5A	0 ± 0.028
T5M	-0.012 ± 0.034
G16F	-0.176 ± 0.059
G16I	-0.144 ± 0.06
E24K	-0.035 ± 0.041

Variant	abundance fitness
E24Q	-0.084 ± 0.039
E24I	-0.035 ± 0.049
E24W	0.171 ± 0.032
E24D	-0.064 ± 0.046
M4H	-0.074 ± 0.045
M4T	-0.06 ± 0.031
M4S	-0.135 ± 0.028
M4F	-0.001 ± 0.035
F17A	0.045 ± 0.025
F17M	0.018 ± 0.032
F17W	-0.007 ± 0.026
F17G	0.04 ± 0.022
F17I	-0.041 ± 0.04
V15F	0.011 ± 0.044
V15C	-0.124 ± 0.039
V15D	-0.158 ± 0.044
V15I	-0.074 ± 0.041
V15P	-0.146 ± 0.032
C35S	-0.154 ± 0.025
C35M	-0.847 ± 0.045
C35A	-0.036 ± 0.034
C35K	-0.945 ± 0.051
C35G	-0.489 ± 0.025
S59H	-0.063 ± 0.038

Variant	abundance fitness
S59Q	-0.017 ± 0.034
S59F	-0.428 ± 0.047
S59P	-0.555 ± 0.037
S43N	-0.043 ± 0.045
S43C	-0.131 ± 0.04
S43P	-0.234 ± 0.033
S43A	-0.016 ± 0.03
S43L	-0.098 ± 0.03
S43T	-0.037 ± 0.032
I39W	-0.109 ± 0.03
I39Q	-0.35 ± 0.035
I39Y	-0.207 ± 0.047
I39D	-0.51 ± 0.055
I39C	-0.109 ± 0.044
I39A	-0.252 ± 0.031
I39N	-0.415 ± 0.061
Q61C	-0.003 ± 0.034
Q61S	-0.009 ± 0.027
Q61L	-0.003 ± 0.027
Q61F	-0.031 ± 0.045
Q61T	-0.002 ± 0.033
Q61G	0.001 ± 0.024
Q61Y	-0.049 ± 0.04
Q61N	-0.021 ± 0.043

Variant	abundance fitness
Q61P	-0.463 ± 0.038
E72C	-0.034 ± 0.046
E72M	-0.01 ± 0.052
E72W	-0.008 ± 0.037
K64V	-0.09 ± 0.026
K9M	-0.043 ± 0.031
K9Q	-0.033 ± 0.031
K9P	-0.112 ± 0.028
K9V	-0.098 ± 0.023
K9E	-0.216 ± 0.032
K9W	-0.084 ± 0.026
K9L	-0.06 ± 0.023
E7T	-0.031 ± 0.21
E7W	-0.054 ± 0.17
E6D	-0.104 ± 0.04
E6R	-0.02 ± 0.023
E6I	-0.07 ± 0.05
E6Y	-0.053 ± 0.045
E6W	-0.048 ± 0.027
D12H	-0.038 ± 0.047
D12V	-0.041 ± 0.027
D12P	-0.009 ± 0.028
D12G	-0.049 ± 0.026
A40G	-0.039 ± 0.025

Variant	abundance fitness
A40K	-0.058 ± 0.038
A40F	-0.101 ± 0.058
A40T	-0.024 ± 0.038
A40S	-0.034 ± 0.032
Q38Y	-0.138 ± 0.052
Q38T	-0.027 ± 0.035
Q38R	-0.032 ± 0.024
Q38G	-0.09 ± 0.025
Q38A	-0.017 ± 0.029
I70N	-0.142 ± 0.04
I70P	-0.259 ± 0.032
I70K	-0.03 ± 0.031
I70A	0.062 ± 0.028
I70Y	-0.003 ± 0.04
L46N	-0.023 ± 0.055
L46C	-0.026 ± 0.038
L46F	-0.004 ± 0.052
L46T	-0.006 ± 0.037
L46Q	-0.001 ± 0.042
L46I	-0.092 ± 0.049
L46W	-0.132 ± 0.031
G20R	-0.112 ± 0.024
G20V	-0.253 ± 0.027
G20M	-0.174 ± 0.037

Variant	abundance fitness
G20H	-0.08 ± 0.048
G20N	-0.115 ± 0.048
G20F	-0.176 ± 0.052
G20D	-0.063 ± 0.036
G20A	-0.066 ± 0.026
E48T	-0.028 ± 0.036
E48D	-0.059 ± 0.041
E48K	-0.084 ± 0.042
E48C	-0.119 ± 0.038
E48M	-0.092 ± 0.036
E48G	-0.045 ± 0.026
E48I	-0.057 ± 0.044
E48H	-0.114 ± 0.054
D42F	-0.094 ± 0.052
D42A	-0.041 ± 0.028
D42Q	-0.054 ± 0.038
P57W	-0.104 ± 0.034
P57I	-0.088 ± 0.05
P57Y	-0.049 ± 0.054
A63K	-1.04 ± 0.069
A63D	-0.633 ± 0.05
A63V	-0.246 ± 0.027
T56S	-0.006 ± 0.027
T56Q	-0.042 ± 0.041

Variant	abundance fitness
T56W	-0.154 ± 0.034
G13L	-0.079 ± 0.026
G13E	0.041 ± 0.032
G13R	-0.007 ± 0.023
G13S	0.025 ± 0.026
G13Q	0.033 ± 0.033
G13H	-0.055 ± 0.04
D68R	-0.019 ± 0.023
D68P	-0.544 ± 0.037
D68E	-0.023 ± 0.03
D68T	-0.034 ± 0.03
D68L	-0.064 ± 0.026
D68I	-0.093 ± 0.04
D68M	-0.011 ± 0.032
G55D	-0.936 ± 0.074
G55N	-1.1 ± 0.16
G55A	-0.534 ± 0.034
G55P	-1.13 ± 0.082
G55E	-1.12 ± 0.069
G55C	-1.24 ± 0.15
C51H	-0.718 ± 0.091
V71N	-0.087 ± 0.044
V71H	-0.128 ± 0.043
V71D	-0.114 ± 0.038

Variant	abundance fitness
V71F	-0.065 ± 0.041
P41C	-0.025 ± 0.038
P41A	-0.044 ± 0.028
P41K	-0.04 ± 0.037
P41S	-0.023 ± 0.028
P41E	0.005 ± 0.033
P41T	-0.016 ± 0.032
P41M	-0.064 ± 0.039
V3M	0.017 ± 0.036
V3I	0.06 ± 0.037
V3G	-0.086 ± 0.023
V3A	-0.058 ± 0.025
V3W	-0.084 ± 0.03
V3N	-0.001 ± 0.043
V3H	-0.043 ± 0.041
G23H	-0.159 ± 0.058
G23L	-0.174 ± 0.03
I37A	-0.313 ± 0.03
I37V	-0.038 ± 0.028
I37W	-0.933 ± 0.049
I37Y	-0.963 ± 0.11
I37S	-0.788 ± 0.041
L53K	-0.835 ± 0.063
L53M	-0.095 ± 0.035

Variant	abundance fitness
L53I	0.048 ± 0.053
L53D	-1 ± 0.092
M52E	-0.053 ± 0.031
M52D	-0.139 ± 0.039
M52G	-0.137 ± 0.024
M52T	-0.033 ± 0.037
M14G	-0.097 ± 0.025
M14K	-0.066 ± 0.033
M14R	-0.131 ± 0.023
M14P	-0.27 ± 0.031
Q69A	-0.006 ± 0.026
Q69P	-0.097 ± 0.034
Q69I	-0.054 ± 0.036
Q69R	-0.009 ± 0.022
P47F	-0.084 ± 0.052
P47T	-0.007 ± 0.033
P47S	-0.014 ± 0.031
P47C	-0.061 ± 0.041
P47Q	0.019 ± 0.038
P47M	-0.088 ± 0.035
P47H	-0.052 ± 0.045
P47D	-0.007 ± 0.042
P47I	-0.049 ± 0.051
L66E	-0.017 ± 0.028

Variant	abundance fitness
L66C	0 ± 0.034
L66D	-0.127 ± 0.035
Q31I	-0.053 ± 0.048
Q31D	0.034 ± 0.043
Q31A	-0.026 ± 0.028
Q31W	-0.153 ± 0.034
I29Q	-0.915 ± 0.12
I29K	-0.881 ± 0.065
I29R	-0.876 ± 0.038
I29Y	-0.246 ± 0.05
I29P	-0.906 ± 0.073
I29G	-0.943 ± 0.035
I29A	-0.226 ± 0.03
I29W	-0.26 ± 0.033
I29M	-0.042 ± 0.034
I29E	-0.781 ± 0.04
I29S	-0.682 ± 0.039
S33Q	-0.431 ± 0.037
S33Y	-0.435 ± 0.049
S33F	-0.219 ± 0.054
S33N	-0.534 ± 0.059
I18L	-0.012 ± 0.027
I18S	-0.226 ± 0.028
I18D	-0.175 ± 0.037

Variant	abundance fitness
I18Q	-0.243 ± 0.035
I18C	-0.145 ± 0.041
I18N	-0.236 ± 0.055
I18P	-0.266 ± 0.031
S50F	-0.177 ± 0.051
S50D	-0.023 ± 0.038
S50E	-0.06 ± 0.033
R49D	-0.172 ± 0.045
R49V	-0.116 ± 0.03
R49A	-0.088 ± 0.031
P11G	-0.138 ± 0.025
P11R	-0.074 ± 0.023
P11L	-0.102 ± 0.025
P11W	-0.185 ± 0.03
P11Y	-0.127 ± 0.042
V60P	-0.871 ± 0.075
V60N	-0.109 ± 0.047
V60R	-0.006 ± 0.025
V60S	-0.57 ± 0.037
V60T	-0.13 ± 0.036
V60W	-0.999 ± 0.056
V60F	-0.558 ± 0.069
G34R	-0.071 ± 0.026
G34C	-0.095 ± 0.043

Variant	abundance fitness
G34K	-0.081 ± 0.04
G34S	-0.15 ± 0.03
G34T	-0.124 ± 0.035
G44Y	-0.037 ± 0.034
G44M	-0.012 ± 0.033
G44R	-0.015 ± 0.024
G44W	-0.125 ± 0.033
G44T	0.002 ± 0.028
G44L	-0.05 ± 0.025
G44H	-0.092 ± 0.035
S62G	-0.01 ± 0.024
S62Y	-0.066 ± 0.041
R1D	0.042 ± 0.048
R1Y	0.011 ± 0.046
R1L	-0.131 ± 0.038
Q25C	-0.054 ± 0.034
Q25G	-0.035 ± 0.022
Q25H	-0.021 ± 0.043
Q25M	-0.027 ± 0.038
E32K	-0.077 ± 0.04
E32L	-0.092 ± 0.028
S27E	0.007 ± 0.033
S27H	-0.012 ± 0.056
S27Y	-0.07 ± 0.047

Variant	abundance fitness
S27T	-0.003 ± 0.032
S27L	-0.054 ± 0.031
S27C	-0.042 ± 0.04
S27V	-0.017 ± 0.027
S27G	-0.016 ± 0.023
S27P	-0.198 ± 0.036
R21S	0.035 ± 0.14
G45A	-0.046 ± 0.033
G45P	-0.078 ± 0.037
G45N	-0.094 ± 0.067
Y8G	-0.608 ± 0.03
Y8K	-0.127 ± 0.039
Y8N	-0.426 ± 0.049
Y8C	-0.297 ± 0.054
Y8D	-0.688 ± 0.057
E58C	-0.17 ± 0.04
E58A	-0.051 ± 0.029
G22E	-0.006 ± 0.032
G22F	-0.105 ± 0.041
G22Q	-0.014 ± 0.036
G22S	-0.1 ± 0.028
G22L	-0.099 ± 0.028
